Like-named read-outs stand apart in the source and are kept apart here.
Experiments:
CUGBP1 RRM2 (ITC) = CUGBP1 RRM2 (ITC) (human, UniProt Q92879 109-187); assay: ITC
CUGBP1 RRM1 (ITC) = CUGBP1 RRM1 (ITC) (human, UniProt Q92879 16-99); assay: ITC
CUGBP1 RRM1/2 [1] = target: T1, CUGBP1 RRM1/2 (human, UniProt Q92879 14-187); assay: filter binding
CUGBP1 RRM1/2 [2] = target: T1, CUGBP1 RRM1/2; assay: EMSA
CUGBP1 RRM1/2 [3] = target: T1, CUGBP1 RRM1/2; assay: crystal structure
CUGBP1 RRM1/2 [4] = target: T1, CUGBP1 RRM1/2; assay: filter binding; remark: listed apart in the source
CUGBP1 RRM1/2 [5] = target: T1, CUGBP1 RRM1/2; assay: filter binding; remark: listed apart in the source

T1 sequence (Q92879 14-187): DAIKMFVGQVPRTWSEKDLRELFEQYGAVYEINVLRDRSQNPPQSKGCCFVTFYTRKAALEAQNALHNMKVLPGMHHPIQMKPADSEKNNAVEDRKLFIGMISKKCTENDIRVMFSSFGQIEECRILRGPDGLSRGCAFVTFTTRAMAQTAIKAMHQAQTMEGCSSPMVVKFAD
Chain of CUGBP1 RRM2 (ITC) (Q92879 109-187): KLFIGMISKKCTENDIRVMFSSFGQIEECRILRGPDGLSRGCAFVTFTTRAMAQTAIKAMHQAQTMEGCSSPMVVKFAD
Chain of CUGBP1 RRM1 (ITC) (Q92879 16-99): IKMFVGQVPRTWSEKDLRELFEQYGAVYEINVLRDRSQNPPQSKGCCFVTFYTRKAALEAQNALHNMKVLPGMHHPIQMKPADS

UUGUU (ssRNA) [UUGUU 5-nt]
Kd (CUGBP1 RRM2 (ITC)): 45 µM | Kd (CUGBP1 RRM1 (ITC)): 29 µM

GUUCUUUUUCUU (ssRNA) [C4C10]
binding result (CUGBP1 RRM1/2 [1]): no binding

GUUUUUUUUUUU (ssRNA) [U4U10]
binding result (CUGBP1 RRM1/2 [1]): no binding

UGUGUGUUGUGUG (ssRNA) [sequence 3, 13-mer]
binding result (CUGBP1 RRM1/2 [2]): binds

GUUGUUUUUGUU (ssRNA, U2 = 5-bromouridine) [BrU2 sequence 2]
binding result (CUGBP1 RRM1/2 [3]): binds

GUUGUUUUUGUU (ssRNA, U8 = 5-bromouridine) [BrU8 sequence 2]
binding result (CUGBP1 RRM1/2 [3]): binds

GUUAUUUUUGUU (ssRNA) [A4G10]
binding signal (CUGBP1 RRM1/2 [4]): 4.4 fold reduction in binding vs N2

GUUGUUUUUAUU (ssRNA) [G4A10]
binding signal (CUGBP1 RRM1/2 [4]): 2.5 fold reduction in binding vs N2

GUUGCUUUUGCU (ssRNA) [C5C11]
binding signal (CUGBP1 RRM1/2 [5]): ~5 fold loss in affinity vs N2

GUUAUUUUUAUU (ssRNA) [A4A10]
binding result (CUGBP1 RRM1/2 [1]): no binding

Reference: paper PMC3381513
